Assay results published in PMC8514580, “Insight into the interaction between the RNA helicase CGH-1 and EDC-3 and its implications” (Scientific Reports, 2021).
Substitutions are numbered along the chain they refer to. Numbers in names are those of the source. Where two headings read alike, the source gives them in different places. No end group written: not given here.

Assays:
CGH-1_248-420^F355A = CGH-1_248-420^F355A (Caenorhabditis elegans, UniProt Q95YF3, F355A); settings: ITC, 20 °C, pH 7.5, 150 mM NaCl, CGH-1 F355A
Experimental: Expression plasmids regarding CGH-1 and CAR-1 were constructed as previously described. In brief, the cDNA fragments encoding CGH-1 RecA2 (residues 248–420), CAR-1 FDF-TFG (residues 184–268) were amplified by PCR from C. elegans genome library and cloned into the NdeI and XhoI site of a modified pET-28a (Novagen) vector (p28a), in which a thrombin protease cleavage site was removed.
CGH-1 protein expression and purification were performed described as in our most recent paper. In brief, proteins were expressed in E. coli Gold (DE3) strain (Novagen). […] Cells were resuspended in Buffer A (20 mM Tris–HCl, pH 7.5, 1 M NaCl), and then lysed using high pressure at 4 °C. Proteins were initially purified by Ni-chelating resin (Qiagen), and further purified by size exclusion chromatography (SEC) on a Superdex 75 column (GE healthcare) in Buffer A. The purified proteins were dialyzed into Buffer B (20 mM Tris–HCl, pH 7.5, 150 mM NaCl).
A peptide containing the C. elegans EDC-3 FDF fragment (residues 235–271) and PATR-1 fragment (residues 30–67) were synthesized from GL Biochem (Shanghai, China) Co., Ltd, respectively. Stock solutions of peptide were prepared in Buffer B described above, and were adjusted to pH 7.5 ± 0.02 for subsequent experiments.
ITC assays were performed as previously described. In brief, it was carried out on a MicroCal PEAQ-ITC (Malvern) at 20 °C with the following settings: reference power, 5 μcal/s; initial delay, 60 s; stir speed, 750 rpm; spacing time, 120 s. Proteins (or its mutants) and peptides were adjusted to 0.05 mM and 0.5 mM, respectively. Experiments were initialed by injection of 1 μl each of peptide into the sample cell (200 μl) filled with protein (or its mutants) solution, followed by 18 injections of 2 μl. The ITC data were fitted with a one-binding-site model using the Origin analysis software.

[1] = target: T1, CGH-1_(248–420) wild type (CGH-1 RecA2 domain) (C. elegans, UniProt Q95YF3 248-420); assay: ITC; ligand (peptide or CAR-1 fragment, 0.5 mM) injected into CGH-1_(248-420) or mutant (0.05 mM) in the cell; 20 °C; Buffer B (20 mM Tris-HCl pH 7.5, 150 mM NaCl); one-binding-site model; settings: both partners purified
T1 construct: Cloned into NdeI/XhoI of a modified pET-28a in which the thrombin cleavage site was removed; also called CGH-1_248-420^WT; source: E. coli Gold (DE3), purified (Ni-chelating resin, SEC Superdex 75)
T1 sequence (looked up): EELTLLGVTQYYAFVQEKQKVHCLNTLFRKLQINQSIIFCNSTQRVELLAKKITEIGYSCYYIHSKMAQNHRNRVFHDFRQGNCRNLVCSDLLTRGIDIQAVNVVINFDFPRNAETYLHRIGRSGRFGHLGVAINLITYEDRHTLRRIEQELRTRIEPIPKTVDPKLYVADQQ

human HA-tagged DDX6 = settings: Co-immunoprecipitation, YFP-tagged PATL1 mutants; cited from earlier work
[2] = target: T2, CGH-1_(248–420) 4A mutant (His269, Cys270, Thr273 and Leu274 to Ala) (C. elegans, UniProt Q95YF3 248-420, His269 to Ala | Cys270 to Ala | Thr273 to Ala | Leu274 to Ala); assay: ITC; ligand (peptide or CAR-1 fragment, 0.5 mM) injected into CGH-1_(248-420) or mutant (0.05 mM) in the cell; 20 °C; Buffer B (20 mM Tris-HCl pH 7.5, 150 mM NaCl); one-binding-site model; settings: both partners purified
T2 construct: Mutant of m1 made with the MutanBEST kit; also called four-alanine mutant; source: E. coli Gold (DE3), purified (Ni-chelating resin, SEC Superdex 75)
T2 sequence (looked up): T1 sequence (looked up) with H22A, C23A, T26A, L27A

CGH-1_(248–420) Q266A = target: T3, CGH-1_(248–420) Q266A (C. elegans, UniProt Q95YF3 248-420, Q266A); assay: as above; settings: both partners purified
T3 construct: Mutant of m1 made with the MutanBEST kit; source: E. coli Gold (DE3), purified (Ni-chelating resin, SEC Superdex 75)
T3 sequence (looked up): T1 sequence (looked up) with Q19A

CGH-1_(248–420) K277E = target: T4, CGH-1_(248–420) K277E (C. elegans, UniProt Q95YF3 248-420, K277E); assay: as above; settings: both partners purified
T4 construct: Mutant of m1 made with the MutanBEST kit; source: E. coli Gold (DE3), purified (Ni-chelating resin, SEC Superdex 75)
T4 sequence (looked up): T1 sequence (looked up) with K30E

CGH-1_(248–420) R393A = target: T5, CGH-1_(248–420) R393A (C. elegans, UniProt Q95YF3 248-420, R393A); assay: as above; settings: both partners purified
T5 construct: Mutant of m1 made with the MutanBEST kit; source: E. coli Gold (DE3), purified (Ni-chelating resin, SEC Superdex 75)
T5 sequence (looked up): T1 sequence (looked up) with R146A

CGH-1_(248–420) H269A = target: T6, CGH-1_(248–420) H269A (C. elegans, UniProt Q95YF3 248-420, H269A); assay: as above; settings: both partners purified
T6 construct: Mutant of m1 made with the MutanBEST kit; source: E. coli Gold (DE3), purified (Ni-chelating resin, SEC Superdex 75)
T6 sequence (looked up): T1 sequence (looked up) with H22A

CGH-1_(248–420) E396A = target: T7, CGH-1_(248–420) E396A (C. elegans, UniProt Q95YF3 248-420, E396A); assay: as above; settings: both partners purified
T7 construct: Mutant of m1 made with the MutanBEST kit; source: E. coli Gold (DE3), purified (Ni-chelating resin, SEC Superdex 75)
T7 sequence (looked up): T1 sequence (looked up) with E149A

CGH-1_(248–420) K277A = target: T8, CGH-1_(248–420) K277A (C. elegans, UniProt Q95YF3 248-420, K277A); assay: as above; settings: both partners purified
T8 construct: Mutant of m1 made with the MutanBEST kit; source: E. coli Gold (DE3), purified (Ni-chelating resin, SEC Superdex 75)
T8 sequence (looked up): T1 sequence (looked up) with K30A

CGH-1_(248–420) F261A = target: T9, CGH-1_(248–420) F261A (C. elegans, UniProt Q95YF3 248-420, F261A); assay: as above; settings: both partners purified
T9 construct: Mutant of m1 made with the MutanBEST kit; source: E. coli Gold (DE3), purified (Ni-chelating resin, SEC Superdex 75)
T9 sequence (looked up): T1 sequence (looked up) with F14A

Chain of CGH-1_248-420^F355A (Q95YF3 248-420 F355A): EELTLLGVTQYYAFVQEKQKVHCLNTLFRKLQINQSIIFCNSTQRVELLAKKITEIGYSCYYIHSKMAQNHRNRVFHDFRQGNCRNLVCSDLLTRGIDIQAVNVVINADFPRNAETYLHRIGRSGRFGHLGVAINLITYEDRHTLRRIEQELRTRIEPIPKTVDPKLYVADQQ

With “SDEDHNIFDDEFDAANDETFGGGLDNIGENAELENYAT [PATR-1_30–67]” the “KD / binding (in words)” value (CGH-1_248-420^F355A) was “almost abolished the binding”, the “KD / binding (in words)” value (CGH-1_248-420^F355A; listed as CePATR-1_30–67) was “almost abolishes the binding” and the “KD / binding (in words)” value (CGH-1_248-420^F355A; listed as PATR1 30-67) was “No binding”. For the same molecule, the “KD / binding (in words)” value (CGH-1_248-420^F355A; listed as PATR-1 peptide) was “undetectable binding”.

B1: CAR-1 FDF-TFG (CAR-1_(184–268)) (domain or fragment, C. elegans, UniProt Q9XW17 184-268, looked up)
chain: LKFESDFDFEKANEKFQEVLVDNLEKLNIEDKAEPEVEEKKDAAFYDKKTSFFDNISCESLEKAEGKTGRPDWKKERETNQETFG
notes: thrombin site of the vector removed; also called CAR-1_184-268^WT; recombinant CAR-1_(184–268) protein; source: recombinant; plasmid in modified pET-28a
With B1 the Kd [1] was 3030 ± 210 nM, the dH [1] was -27 ± 0.43 kcal per mol and the “stoichiometry N” value [1] was 0.89.

B2: YFP-tagged PATL1 W46A: substitution of Trp46 to Ala in the YFP-tagged PATL1 (protein, UniProt Q86TB9 1-770, looked up, variant W46A)
Protein PAT1 homolog 1: MFRYESLEDCPLDEDEDAFQGLGEEDEEIDQFNDDTFGSGAVDDDAQEAHERLAELEEKLPVAVNEQTGNGERDEMDLLGDHEENLAERLSKMVIENELEDPAIMRAVQTRPVLQPQPGSLNSSIWDGSEVLRRIRGPLLAQEMPTVSVLEYALPQRPPQGPEDDRDLSERALPRRSTSPIIGSPPVRAVPIGTPPKQMAVPSFTQQILCPKPVHVRPPMPPRYPAPYGERMSPNQLCSVPNSSLLGHPFPPSVPPVLSPLQRAQLLGGAQLQPGRMSPSQFARVPGFVGSPLAAMNPKLLQGRVGQMLPPAPGFRAFFSAPPSATPPPQQHPPGPGPHLQNLRSQAPMFRPDTTHLHPQHRRLLHQRQQQNRSQHRNLNGAGDRGSHRSSHQDHLRKDPYANLMLQREKDWVSKIQMMQLQSTDPYLDDFYYQNYFEKLEKLSAAEEIQGDGPKKERTKLITPQVAKLEHAYKPVQFEGSLGKLTVSSVNNPRKMIDAVVTSRSEDDETKEKQVRDKRRKTLVIIEKTYSLLLDVEDYERRYLLSLEEERPALMDDRKHKICSMYDNLRGKLPGQERPSDDHFVQIMCIRKGKRMVARILPFLSTEQAADILMTTARNLPFLIKKDAQDEVLPCLLSPFSLLLYHLPSVSITSLLRQLMNLPQSAATPALSNPHLTAVLQNKFGLSLLLILLSRGEDLQSSDPATESTQNNQWTEVMFMATRELLRIPQAALAKPISIPTNLVSLFSRYVDRQKLNLLETKLQLVQGIR
modifications: YFP tag
For B2, the “interaction with DDX6” value (human HA-tagged DDX6) is listed as “impaired the interaction”.

B3: EDC-3 FDF peptide (EDC-3_(235–271)) (peptide)
peptide: LADPIDFDLDSDFDFAENLKLFEKDENDDQYYETVEK
notes: Enhancer of decapping-3 (EDC-3, also called LSm16), C. elegans, FDF fragment, residues 235-271; Printed with free NH2 and COOH ends; also called EDC-3 peptide; EDC-3 FDF-FEK peptide; source: synthetic peptide (GL Biochem, Shanghai)
With B3 the Kd [2] was 8750 ± 3640 nM, the dH [2] was -5.94 ± 0.89 kcal per mol and the “stoichiometry N” value [2] was 0.79. The Kd (CGH-1_(248–420) Q266A) was 1750 ± 380 nM, the dH (CGH-1_(248–420) Q266A) was -12.1 ± 0.51 kcal per mol and the “stoichiometry N” value (CGH-1_(248–420) Q266A) was 1.1. The dH [1] was -17.6 ± 0.09 kcal per mol, the “stoichiometry N” value [1] was 1.07 and the Kd (CGH-1_(248–420) K277E) was 5970 ± 510 nM. The dH (CGH-1_(248–420) K277E) was -11.5 ± 0.3 kcal per mol, the “stoichiometry N” value (CGH-1_(248–420) K277E) was 1.12 and the Kd (CGH-1_(248–420) R393A) was 2070 ± 280 nM. The dH (CGH-1_(248–420) R393A) was -17.3 ± 0.47 kcal per mol, the “stoichiometry N” value (CGH-1_(248–420) R393A) was 0.99 and the Kd (CGH-1_(248–420) H269A) was 2550 ± 320 nM. The dH (CGH-1_(248–420) H269A) was -12.5 ± 0.34 kcal per mol, the “stoichiometry N” value (CGH-1_(248–420) H269A) was 1.03 and the Kd (CGH-1_(248–420) E396A) was 850 ± 110 nM. The dH (CGH-1_(248–420) E396A) was -16.1 ± 0.31 kcal per mol, the “stoichiometry N” value (CGH-1_(248–420) E396A) was 1 and the Kd (CGH-1_(248–420) K277A) was 2740 ± 340 nM. The dH (CGH-1_(248–420) K277A) was -15.2 ± 0.47 kcal per mol, the “stoichiometry N” value (CGH-1_(248–420) K277A) was 1.22 and the Kd (CGH-1_(248–420) F261A) was 1160 ± 240 nM. The dH (CGH-1_(248–420) F261A) was -14.1 ± 0.48 kcal per mol and the “stoichiometry N” value (CGH-1_(248–420) F261A) was 1.09.
